Key:
Test in all cases: rNET
… analog, Residue 3 = K = molecular target: … analog, Residue 3 = K
… analog, Residue 1 = V = molecular target: … analog, Residue 1 = V
… analog, Residue 1 = H = molecular target: … analog, Residue 1 = H
… analog, Residue 1 = R = molecular target: … analog, Residue 1 = R

OD (… analog, Residue 3 = K): 0.053 OD
OD (… analog, Residue 1 = V): 0.057 OD
OD (… analog, Residue 1 = H): 0.054 OD
OD (… analog, Residue 1 = R): 0.056 OD
Substance: murine monoclonal antibody 3D6

— patent US20040087777A1
